Test results taken from paper PMC9236144 (Molecular Biology of the Cell, 2022).

Biological target: Bni1FH1C (Bni1 residues 1227-1953) (S. cerevisiae, UniProt P41832 1227-1953)
Experiment: fluorescence polarisation

Bni1FH1C (Bni1 residues 1227-1953), sequence (P41832 1227-1953): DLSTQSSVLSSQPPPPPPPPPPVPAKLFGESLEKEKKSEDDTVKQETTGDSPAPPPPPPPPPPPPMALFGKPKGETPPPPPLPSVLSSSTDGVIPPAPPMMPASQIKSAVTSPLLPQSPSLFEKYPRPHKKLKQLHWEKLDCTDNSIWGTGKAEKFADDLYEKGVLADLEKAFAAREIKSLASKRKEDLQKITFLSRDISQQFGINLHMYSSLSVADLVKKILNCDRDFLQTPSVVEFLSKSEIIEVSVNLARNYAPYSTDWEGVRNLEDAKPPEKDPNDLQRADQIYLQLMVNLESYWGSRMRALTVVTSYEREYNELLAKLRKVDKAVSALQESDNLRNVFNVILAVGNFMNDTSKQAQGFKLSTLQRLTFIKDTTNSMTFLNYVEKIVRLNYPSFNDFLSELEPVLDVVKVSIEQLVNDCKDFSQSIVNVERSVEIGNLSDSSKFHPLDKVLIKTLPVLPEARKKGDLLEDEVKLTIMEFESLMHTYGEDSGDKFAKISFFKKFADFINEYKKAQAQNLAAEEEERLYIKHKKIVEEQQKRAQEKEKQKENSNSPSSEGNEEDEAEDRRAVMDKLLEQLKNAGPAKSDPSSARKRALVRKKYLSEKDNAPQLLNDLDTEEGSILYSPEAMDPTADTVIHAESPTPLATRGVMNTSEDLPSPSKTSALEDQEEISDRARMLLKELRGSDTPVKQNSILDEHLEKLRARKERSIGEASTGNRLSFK

binding result: binds
B1: Bud6C (Bud6 residues 550-789) (domain or fragment, S. cerevisiae, UniProt P41697 550-788, looked up)
chain: AKNSSNRMYMEKSQTELGDLSDTLLSKVDDLQDVIEIMRKDVAERRSQPAKKKLETVSKDLENAQADVLKLQEFIDTEKPHWKKTWEAELDKVCEEQQFLTLQEELILDLKEDLGKALETFDLIKLCCEEQEKNPSRSKSNPILPIMRPGTFNQVREQVMVAVQSLNPDHDSRVEAIDKAEKMWEMERKLKASNEFDDELENFVGNSNLKKSGGFEEVERIRKQKDEANLRAYFGPGFT
